Assay results as given in PMC7204071, “The model cyanobacteria Anabaena sp. PCC 7120 possess an intact but partially degenerated gene cluster encoding gas vesicles” (BMC Microbiology, 2020).

Substrate: Nc1ncnc2c1ncn2[C@@H]1O[C@H](COP(=O)(O)OP(=O)(O)OP(=O)(O)O)[C@@H](O)[C@H]1O
Test: ATP/NADH coupled assay (pyruvate kinase / lactate dehydrogenase), A340, Hanes-Woolf plot
Assay type: biochemical, Nostoc sp. PCC 7120 = FACHB-418
Settings: 50 mM Tris-HCl pH 8.0, 20 mM KCl, 5 mM MgCl2, 25 °C, 50 μg GvpN in assay, methods state NADH (40 to 200 μM), not ATP, was varied

B1: GvpN (Nostoc sp. PCC 7120 = FACHB-418) (protein)
chain: MTLTANNKKRAVLRVRPGQFVVTPAIEQVAIRALRYLTSGFAIHLRGPAGTGKTTLAMHLANCLDRPIMLIFGDDEFKSSDLIGSESGYTHKKLLDNYIHSVLKVEDEFKQNWVDSRLTLACREGFTLVYDEFNRSRPEVNNVLLSALEEKILTLPPSSNQPEYLHVNPQFRAIFTSNPEEYCGVHSTQDALMDRLVTINMPEPDELTQTEILAQKTALNRADALLIVRLVKAFRSRTGGEKTSGLRSCLMIAKVCAEHNILVSPQSSDFREICADVLFNRTNWSASEAATIFLELLNHLDLQQIEEFKNSIIPEDTDAIAEGGFPTIIDSHFGTLDSEVLEQPGVEDSIPFEQEIYLYLQQYKSAALALVQQEFELSRTVATNALNSLEQKGLVSKNNHVYTIEEPNQS
notes: recombinant, C-terminal 6xHis tag (modified pET-29a, same manner as GvpF), E. coli BL21(DE3), Ni-NTA and Superdex 200; N-terminal AAA domain
- Km: 3.9 ± 1.5 µM
- kcat: 35 ± 2 s⁻¹
